# Assay results: the DeepSol protein solubility set
# Test: soluble on expression in E. coli; label from the status in PepcDB or PDB records
row,Sequence,soluble on expression in E. coli
1,MGSDKIHHHHHHMAHPPQIRIPATYLRGGTSKGVFFRLEDLPESCRVPGEARDRLFMRVIGSPDPYAAHIDGMGGATSSTSKCVILSKSSQPGHDVDYLYGQVSIDKPFVDWSGNCGNLSTGAGAFALHAGLVDPARIPEDGICEVRIWQANIGKTIIAHVPVSGGQVQETGDFELDGVTFPAAEIVLEFLDPSDDGEDGGAIFPTGNLVDDLEVPGVGTFKATMINAGIPTVFVNAEEIGYRGTELREEINGDPQQLARFERIRVAGALRMGLIKTPEEAATRQHTPKIAFVAPPRDYRTASGKLVAAGDIDLLVRALSMGKLHHAMMGTAAVAIGTAAAIPGTLVNLAAGGGERSAVRFGHPSGTLRVGAEASQANGEWTVTKAIMSRSARILMEGWVRVPGDAF,not soluble
2,MMEENKRVLLGMSGGTDSSVAAMRLLEAGYEVTGVTFRFYELNDSTEYLEDARHLAERLGIRHITYDAREIFRKQIIEYFVHEYMVGHTPVPCTLCNNYLKWPLLSKIADEMGIFYIATGHYVRKVKVDDTCYITYAADSDKDQTFFLWGLKQDILRRMLLPMGDITKVEARAFAAERGFQKVAVKRDSLGVCFCPMDYRSFLKMWLVSNCQPQVSVGQPQVSAGQTWSAEVRRGRFVDEKGDFIAWHEGYPFYTVGQRRGLGIHLNRAVFVKEIRPEKNEVVLASLQALEKTEMLLKDWNIVNRERLLGHADIIVKIRYRKQENHCTVTVTLDNFLHVQLHEPLTAIASGQAAAFYKDGLLLGGGIIVE,not soluble
3,MKMKQVSRSALVSFSAEQMFHLVNDVARYPEFLPGCSGSCVLEQSEAHMVASVDVSKAGISKTFTTSNQLTPGVSIAMSLVDGPFKTLRGGWFFTPLDEAACKVELRLEFEFSSKMIELAFGKIFNELTSNMVNAFTRRAKQVYGEMAGDPLEHHHHHH,not soluble
4,MGSDKIHHHHHHMSLLKVQNLTKEFPLGFFGKERLKAVDDVSFEIERSRIVSLIGESGSGKTTVGKLILKLIRPSSGQILLNGRDITQIKGRELREYYRKVQGVFQDPFSSFNPIYKIDRVLDMVFEEFFPDTPASERRTKMEEVIASVGMNPREILGKYPHQLSGGQLQRILIARTLLLNVELLIADEIISMLDASTRVDILNLLGDLRERGMSVIFITHDLSLGYYISDETFIMYRGNIVEMGDTEKVFHNPIHPYTKMLLESVPEIDRKWDLSKRFIPELVSSSNAPCKYYDRCPIRDERCLVQKPAMVEVEENHKVLCLKAGD,not soluble
5,QGQPLANFEGGQPMEALQQWTAAVVKAVEGKLPGITGDDAEAEPAEDPRFEPATEALNAGDFDAAIAVYEEILRHEPKNQMALQARDNARLLSRLKDADRSVDPIAVADADLQDVDKAFAAADAEITTGKVEEAFDRLIELLPNEKVRTRLLELYSVFEPSDSRVQAARSKMASKLF,not soluble
6,MSLEYIIKNGIVYDPLNGINGEKMDICVKDGKIVESVSDNAKVIDASGCVVMPGGIDSHSHVAGAKVNVGRIFRPEDSKREIYAKKGLRTGTGFSVPSTYKTGYQYSEMGYTTVIEAAMPPLIARHTHEEFMETPQIDKAAMPLFGNNWMVLEYLKEGDIKACAAFVAWLLKAVKGFAIKIVNPGGTEAWGWGKNVHSLDDPVPYFDITPREIVRGLAEVNELLGLPHSIHVHPNNLGHPGNWETTLETMKCVEGVEAKPRVGERETSYYNTHCQFHSYGGTSWKDFESKAIEIAEYVNKSKHVVIDVGQVTLDETTTMTADGPMEYDLHMTNGLKWANCDVELETGSGVVPFIYSPKGPVYAVQWAIGLELFLNTNTDKVLLTTDHPNAGPFTRYPRVIAWLMSKKYRDEWLYNKVHKWAQQRSHVADADKEYDLYEIAKITRANQAKVLGLSETKGHLGVGAEADIAIYAIDPEEKDGKKIEKAFRYAKYVLKGGEVVVKDGNVVKEVFGDTIYVDVQVGEDLMNEVLKDVGEKFRRYYSVNLENYPVSDEYANSWRVIKIDATDINEGHHHHHH,not soluble
7,MKAARQQAIVDLLLNHTSLTTEALSEQLKVSKETIRRDLNELQTQGKILRNHGRAKYIHRQNQDSGDPFHIRLKSHYAHKADIAREALAWIEEGMVIALDASSTCWYLARQLPDINIQVFTNSHPICHELGKRERIQLISSGGTLERKYGCYVNPSLISQLKSLEIDLFIFSCEGIDSSGALWDSNAINADYKSMLLKRAAQSLLLIDKSKFNRSGEARIGHLDEVTHIISDERQVATSLVTA,soluble
